Measurements from paper PMC10492700.

Legend:
Assay in all cases: NMR
Details in all cases: 308 K; not stated (50 mM buffer); 50 mM MES, MOPS, HEPES, TRIS/HCl or CAPS; zinc-loaded, inhibitor-free, folded
His107 = His107 (UniProt position 107, GQGSEHTVDKK)
His119 = His119 (UniProt position 119, YAAELHLVHWN)
His96 = His96 (UniProt position 96, IQFHFHWGSLD)

Substance: Carbonic anhydrase II (HCAII), wild type (Homo sapiens)
- pKa (His107): <5.1 (not titrating in the studied pH range, 5.1-9.9)
- pKa (His119): <5.1 (not titrating in the studied pH range, 5.1-9.9)
- pKa (His96): <5.1 (not titrating in the studied pH range, 5.1-9.9)
